US9029505B2, “Modified vasoactive intestinal peptides” (Phasebio Pharmaceuticals, Inc., priority 2009, dated 2015)
Each block holds one molecule with its values, some of them ahead of it. No end group written: not given here. ELP1‑120 = 120 ELP1 units (VPGXG) fused at the C-terminus

Columns and labels:
[1] = molecular target: T1, human Vasoactive Intestinal Peptide Receptor 1 (VPAC1) (Homo sapiens, UniProt P32241); test: cell-based cAMP bioassay in CHO cells expressing VPAC1; conditions: for activity compared with native VIP protein for VPAC1 receptor (cAMP produced): CHO cells expressing VPAC1, 30 minute incubation, FIG. 9, PB1047 DPP-IV treated before addition; for fold less active than the native VIP peptide on the VPAC1 receptor: FIG. 12
T1 construct: expressed in transfected cells; host or cells: Chinese Hamster Ovary (CHO) cells
T1 sequence (P32241 31-457): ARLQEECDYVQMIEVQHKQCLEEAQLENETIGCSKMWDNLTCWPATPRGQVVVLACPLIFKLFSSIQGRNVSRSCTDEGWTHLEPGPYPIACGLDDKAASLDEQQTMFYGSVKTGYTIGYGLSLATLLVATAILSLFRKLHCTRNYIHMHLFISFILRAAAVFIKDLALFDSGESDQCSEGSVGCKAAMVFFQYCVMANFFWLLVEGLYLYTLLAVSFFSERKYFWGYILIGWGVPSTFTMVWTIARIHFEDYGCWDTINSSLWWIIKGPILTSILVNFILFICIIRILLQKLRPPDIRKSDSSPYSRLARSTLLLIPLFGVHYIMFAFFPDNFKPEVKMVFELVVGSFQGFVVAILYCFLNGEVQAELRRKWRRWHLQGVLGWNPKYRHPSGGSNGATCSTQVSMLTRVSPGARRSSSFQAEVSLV
Source text: (§1) To measure the in vitro biological activity and potency of VIP or VIP-ELP fusion proteins, a cell-based bioassay was used. The assay measures the increase in intracellular cyclic adenosine monophosphate (cAMP) concentration in response to treatment with VIP or VIP-ELP fusion proteins in Chinese Hamster Ovary (CHO) cells that have been engineered to express either the human Vasoactive Intestinal Peptide Receptor 2 (VPAC2) or the human Vasoactive Intestinal Peptide Receptor 1 (VPAC1). […] Since the amount of cAMP accumulation in cells after receptor-mediated ligand binding and activation is directly proportional to the amount of intact peptide or fusion protein present, the assay can be used to determine bioactivity and relative potency.
The activity of PB1046 and PB1047 was also tested using CHO cells expressing the VIP receptor VPAC1. After 30 minute incubations of various concentrations of the fusion proteins with CHO cells, cells were lysed and the amount of cAMP produced was measured using a commercial kit. PB1047 was DPP-IV treated prior to the addition to the cells.
The activity of the PB1120 fusion peptide was tested in vitro. The activity was tested using an assay utilizing CHO cells expressing VIP receptor (VPAC1) as described above in Example 3.

[2] = molecular target: T2, human Vasoactive Intestinal Peptide Receptor 2 (VPAC2) (Homo sapiens, UniProt P41587); test: cell-based cAMP bioassay in CHO cells expressing VPAC2; conditions: for activity compared with native VIP protein for VPAC2 receptor (cAMP produced): CHO cells expressing VPAC2, 30 minute incubation, FIG. 8, PB1047 DPP-IV treated before addition
T2 construct: expressed in transfected cells; host or cells: Chinese Hamster Ovary (CHO) cells
T2 sequence (P41587 24-438): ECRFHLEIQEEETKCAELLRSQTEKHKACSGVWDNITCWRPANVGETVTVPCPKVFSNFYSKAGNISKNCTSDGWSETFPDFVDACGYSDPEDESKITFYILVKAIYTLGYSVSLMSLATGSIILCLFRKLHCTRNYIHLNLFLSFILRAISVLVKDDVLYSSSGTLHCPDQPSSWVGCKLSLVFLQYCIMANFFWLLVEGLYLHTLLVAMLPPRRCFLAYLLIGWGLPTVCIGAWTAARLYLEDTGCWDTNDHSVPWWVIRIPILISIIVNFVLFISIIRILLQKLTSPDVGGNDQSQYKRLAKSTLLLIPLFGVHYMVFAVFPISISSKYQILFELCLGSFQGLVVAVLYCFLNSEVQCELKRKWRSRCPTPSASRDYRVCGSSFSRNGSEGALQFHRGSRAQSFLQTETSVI
Source text: as §1
In this example, the activity of VIP-ELP fusion proteins PB1046 and PB1047 was tested. Construct PB1046 contains VIP with a Met at the N-terminus and construct PB1047 contains VIP with Ala-Ala at its N-terminus. Both constructs have ELP (1-120) at their C-terminus. In the first experiment, the activity of the constructs was tested using CHO cells expressing the VIP receptor VPAC2. After 30 minute incubations of various concentrations of the fusion proteins with the cell, the cells were lysed and the amount of cAMP produced was measured using a commercial kit. PB1047 was DPP-IV treated prior to the addition to the cells.
FIG. 13 illustrates the activity of PB1120 for the VPAC2 receptor. Like the results seen for the VPAC1 receptor, PB1120 show slightly less activity (˜1.5 fold less) than the native VIP peptide for VPAC2. However, in contrast to the results seen with VPAC1. PB1046 was equipotent for VPAC2 as compared to the native peptide.

[3] = Domschke 1978, Burhol 1978; cited from earlier work
[4] = system: Spontaneously hypertensive rats; test: blood pressure effect in spontaneously hypertensive rats; format: in vivo, rat; conditions: 10 mg/kg subcutaneous
Method: The activity of the modified VIP-ELP fusion protein PB1047 was also tested in vivo. Specifically, effects of VIP-ELP fusion protein on blood pressure were tested. Spontaneously hypertensive rats were treated subcutaneous with PB1047 (10 mg/kg) or buffer control and their blood pressures were measured at several points after administration of the fusion protein. Five animals were used for each group and the graphs show the average and the standard deviation.

DPP IV = DPP IV (Homo sapiens, UniProt P27487); test: DPP IV treatment of the fusion protein; format: biochemical; conditions: removal of both AA and HS from the N-terminus
Chain of DPP IV (P27487 whole entry, species assumed, the tested form may be a part): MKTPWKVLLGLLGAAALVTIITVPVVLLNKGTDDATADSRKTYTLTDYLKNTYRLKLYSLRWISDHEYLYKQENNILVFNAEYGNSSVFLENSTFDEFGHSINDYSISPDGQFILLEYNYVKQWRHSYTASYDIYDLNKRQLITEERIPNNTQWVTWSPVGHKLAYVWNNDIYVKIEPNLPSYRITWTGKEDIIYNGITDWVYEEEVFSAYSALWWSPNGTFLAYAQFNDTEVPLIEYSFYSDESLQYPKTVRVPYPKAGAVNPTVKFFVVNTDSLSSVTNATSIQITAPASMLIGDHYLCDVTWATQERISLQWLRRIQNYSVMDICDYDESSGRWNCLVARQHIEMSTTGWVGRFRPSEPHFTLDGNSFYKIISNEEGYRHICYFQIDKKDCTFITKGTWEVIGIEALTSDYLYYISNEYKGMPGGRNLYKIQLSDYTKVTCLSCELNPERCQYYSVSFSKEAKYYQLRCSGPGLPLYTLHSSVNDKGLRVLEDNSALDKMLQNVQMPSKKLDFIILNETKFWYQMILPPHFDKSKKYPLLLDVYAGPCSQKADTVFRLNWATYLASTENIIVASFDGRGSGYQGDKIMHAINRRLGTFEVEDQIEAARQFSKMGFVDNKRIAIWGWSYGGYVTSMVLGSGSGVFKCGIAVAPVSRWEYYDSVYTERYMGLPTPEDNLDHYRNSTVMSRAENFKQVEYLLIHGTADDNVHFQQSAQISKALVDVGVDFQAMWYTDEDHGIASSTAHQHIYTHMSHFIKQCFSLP
Source text: Plasmid pPB1064 was therefore constructed, where the N-terminus was changed to MAAHG, SEQ ID NO: 45, instead of MAAHS, SEQ ID NO: 46, because HG is more resistant to DPP IV than HS.

rats = test: effects on systolic, diastolic and mean arterial blood pressure in rats; format: in vivo, rat; conditions: 9 hrs post-injection
Method: To measure the effects of the modified VIP-ELP fusion protein PB1120 on systolic, diastolic, and mean arterial blood pressure, rats were given single, subcutaneous injections of 0.1 mg/kg, 1 mg/kg, or 5 mg/kg of PB1120 and evaluated over 3-hr intervals. FIGS. 15A, 15B, and 15C show the average change in systolic, diastolic, and mean arterial pressure, respectively.

[5] = pharmacokinetic profile in monkeys after single SC injection; format: in vivo, monkey; conditions: single SC 3 mg/kg, to day 4
Method: In addition to the biological potency assays described above, the pharmacokinetic profile of the VIP-ELP fusion protein PB1120 was also examined. Monkeys were given single subcutaneous (SC) injections (dosed at 3 mg/kg) of PB1120 and plasma drug concentrations were measured daily over the course of one week. Three animals were used and the graphs show the average and the standard deviation.

Molecule: Vasoactive intestinal peptide [VIP]
half-life in blood [3]: less than 2 minutes

B1: PB1120: VIP-ELP1-120 fusion peptide encoded by pPB1120 (protein)
chain: HSDAVFTDNYTRLRKQMAVKKYLNSILNVPGVGVPGVGVPGGGVPGAGVPGVGVPGVGVPGVGVPGGGVPGAGVPGGGVPGVGVPGVGVPGGGVPGAGVPGVGVPGVGVPGVGVPGGGVPGAGVPGGGVPGVGVPGVGVPGGGVPGAGVPGVGVPGVGVPGVGVPGGGVPGAGVPGGGVPGVGVPGVGVPGGGVPGAGVPGVGVPGVGVPGVGVPGGGVPGAGVPGGGVPGVGVPGVGVPGGGVPGAGVPGVGVPGVGVPGVGVPGGGVPGAGVPGGGVPGVGVPGVGVPGGGVPGAGVPGVGVPGVGVPGVGVPGGGVPGAGVPGGGVPGVGVPGVGVPGGGVPGAGVPGVGVPGVGVPGVGVPGGGVPGAGVPGGGVPGVGVPGVGVPGGGVPGAGVPGVGVPGVGVPGVGVPGGGVPGAGVPGGGVPGVGVPGVGVPGGGVPGAGVPGVGVPGVGVPGVGVPGGGVPGAGVPGGGVPGVGVPGVGVPGGGVPGAGVPGVGVPGVGVPGVGVPGGGVPGAGVPGGGVPGVGVPGVGVPGGGVPGAGVPGVGVPGVGVPGVGVPGGGVPGAGVPGGGVPGVGVPGVGVPGGGVPGAGVPGVGVPGVGVPGVGVPGGGVPGAGVPGGGVPGWP
modifications: VIP ELP1-120
notes: VIP-ELP1-120 fusion peptide encoded by pPB1120
diastolic pressure (rats; 1 mg/kg SC): significant reductions | mean arterial pressure (rats; 1 mg/kg SC): significant reductions | systolic pressure (rats; 1 mg/kg SC): significant reductions | diastolic pressure (rats; 5 mg/kg SC): significant reductions | mean arterial pressure (rats; 5 mg/kg SC): significant reductions | systolic pressure (rats; 5 mg/kg SC): significant reductions | portion of initial dose remaining in the circulation [5]: More than half | fold less active than the native VIP peptide on the VPAC1 receptor [1]: approximately 1.4 fold | fold less activity than the native VIP peptide for VPAC2 ([2]; FIG. 13): ~1.5 fold

Now from value to molecule, other results behind:

activity compared with native VIP protein for VPAC1 receptor (cAMP produced) [1]: much less active than native VIP protein | fold less active than the native VIP peptide on the VPAC1 receptor [1]: approximately 11 fold | potency for VPAC2 compared to the native peptide ([2]; FIG. 13): equipotent
Molecule: PB1046: VIP-ELP fusion protein with Met at the N-terminus and ELP1-120 at the C-terminus (SEQ ID NO. 17; FIG. 1 SEQ ID NO: 14) (MHSDAVFTDNYTRLRKQMAVKKYLNSILN-{ELP1‑120}; also: recombinant VIP-ELP fusion)
activity compared with native VIP protein for VPAC2 receptor (cAMP produced) [2]: somewhat more active than native VIP protein | receptor selectivity VPAC2 over VPAC1 ([2]; comparison of FIG. 8 and FIG. 9): selectively activates VPAC2 receptor over VPAC1 receptor

effect of DPP IV treatment on the peptide (DPP IV): inactivation of the peptide | activity compared with native VIP protein for VPAC2 receptor (cAMP produced) [2]: less active
Molecule: PB1047: VIP-ELP fusion with tripeptide MAA encoded at N-terminus (Ala-Ala after Met removal), ELP1-120 at C-terminus (SEQ ID 18) (MAAHSDAVFTDNYTRLRKQMAVKKYLNSILN-{ELP1‑120}; also: recombinant fusion with ELP1-120 at C-terminus)
duration of blood pressure reduction post administration ([4]; systolic and diastolic): at least 12 hours | diastolic blood pressure ([4]; vs buffer control, FIG. 10): significantly reduced | systolic blood pressure ([4]; vs buffer control, FIG. 10): significantly reduced | activity compared with native VIP protein for VPAC1 receptor (cAMP produced) [1]: about the same as it was in the test for VPAC2 receptor
